Measured values from PMC8182377, “Tying up the Loose Ends: A Mathematically Knotted Protein” (Frontiers in Chemistry, 2021).
Blank lines part the entries; values can stand above or below the molecule they belong to.

Experiments:
[1] = target: wild-type YibK from Pseudomonas aeruginosa in its linear form (Pseudomonas aeruginosa); test: crystal structure; PaYibK: 0.15 M ammonium sulfate, 0.9 M lithium sulfate, 0.1 M sodium citrate pH 5.6, 2.0 Å; cYibK: 0.3 M ammonium sulfate, 0.1 M MES pH 6.0, 25% PEG MME 5,000, 2.2 Å
[2] = target: backbone-cyclized YibK from Pseudomonas aeruginosa with a nine-residue linker (sortase A ligation of PaYibK_lo) (Pseudomonas aeruginosa); test: SEC-SAXS; native conditions: buffer A (50 mM Tris-HCl pH 7.4, 0.5 mM EDTA, 5 mM DTT) without urea, 2% glycerol; protein at 10 mg/ml; online size-exclusion column (Bio SEC-3)
lYibK (linear PaYibK_lo) = target: T1, lYibK (linear PaYibK_lo) (Pseudomonas aeruginosa, UniProt Q9HU57); test: isothermal titration calorimetry; type: binding
T1 construct: gene trmL; recombinant in E. coli ER2566 from pBHRSF260, N-terminal His-SUMO fusion cut by Ulp1; homodimer
T1 sequence (Q9HU57 1-153): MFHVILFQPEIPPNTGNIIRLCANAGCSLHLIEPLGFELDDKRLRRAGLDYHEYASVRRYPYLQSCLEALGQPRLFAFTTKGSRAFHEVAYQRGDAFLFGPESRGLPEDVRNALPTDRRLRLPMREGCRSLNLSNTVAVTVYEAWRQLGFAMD

[3] = target: T2, cYibK (cYibK_lo, backbone-cyclized PaYibK) (Pseudomonas aeruginosa, UniProt Q9HU57); test: isothermal titration calorimetry; type: binding
T2 construct: gene trmL; recombinant in E. coli ER2566 from pITRSF3D (SUMO fusion cut, LPETG-H6), N and C termini joined by S. aureus sortase A through a nine-residue linker, His-tag removed by ligation; backbone-cyclized, homodimer

[4] = target: linear form of YibK from Pseudomonas aeruginosa with the identical sequence as PaYibK_lo / cYibK (Pseudomonas aeruginosa); test: SEC-SAXS; native conditions: buffer A (50 mM Tris-HCl pH 7.4, 0.5 mM EDTA, 5 mM DTT) without urea, 2% glycerol; protein at 10 mg/ml; online size-exclusion column (Bio SEC-3)

stoichiometry N [1]: 2
Molecule: wild-type YibK from Pseudomonas aeruginosa in its linear form (enzyme)

Molecule: backbone-cyclized YibK from Pseudomonas aeruginosa with a nine-residue linker (sortase A ligation of PaYibK_lo) (enzyme)
stoichiometry N [2]: 2

Molecule: Nc1ncnc2c1ncn2[C@@H]1O[C@H](CSCC[C@H](N)C(=O)O)[C@@H](O)[C@H]1O [S-adenosyl-L-homocysteine]
Kd (lYibK (linear PaYibK_lo)): 8.8 ± 0.01 µM
Kd [3]: 8.93 ± 0.03 µM

Molecule: linear form of YibK from Pseudomonas aeruginosa with the identical sequence as PaYibK_lo / cYibK (enzyme)
stoichiometry N [4]: 2
